# Literature values as cited in article PMC10950897, “VCF1 is a p97/VCP cofactor promoting recognition of ubiquitylated p97-UFD1-NPL4 substrates” (Nature Communications, 2024).
# Biological target: p97 (Homo sapiens) (UniProt P55072)
# Sequence (P55072 2-806): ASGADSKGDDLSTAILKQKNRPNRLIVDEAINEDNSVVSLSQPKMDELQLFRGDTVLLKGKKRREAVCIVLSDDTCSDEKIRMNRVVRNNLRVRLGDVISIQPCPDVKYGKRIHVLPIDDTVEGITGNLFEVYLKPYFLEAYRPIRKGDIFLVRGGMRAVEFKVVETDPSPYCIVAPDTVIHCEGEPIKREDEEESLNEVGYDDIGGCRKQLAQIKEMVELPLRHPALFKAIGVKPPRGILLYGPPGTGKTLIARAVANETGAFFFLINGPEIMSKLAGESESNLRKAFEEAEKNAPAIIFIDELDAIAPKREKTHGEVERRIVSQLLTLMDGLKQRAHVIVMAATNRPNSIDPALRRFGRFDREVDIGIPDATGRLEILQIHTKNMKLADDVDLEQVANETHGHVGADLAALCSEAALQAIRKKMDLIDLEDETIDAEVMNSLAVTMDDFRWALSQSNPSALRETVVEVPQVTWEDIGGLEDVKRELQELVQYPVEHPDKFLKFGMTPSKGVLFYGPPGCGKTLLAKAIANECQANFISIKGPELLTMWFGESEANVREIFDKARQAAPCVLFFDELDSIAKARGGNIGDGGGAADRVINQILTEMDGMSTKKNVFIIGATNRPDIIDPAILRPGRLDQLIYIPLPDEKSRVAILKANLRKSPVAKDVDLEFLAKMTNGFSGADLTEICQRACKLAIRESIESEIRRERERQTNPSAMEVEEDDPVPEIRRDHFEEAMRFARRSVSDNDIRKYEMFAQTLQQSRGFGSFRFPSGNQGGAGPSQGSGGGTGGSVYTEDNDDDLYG
# p47, sequence (Q9UNZ2 whole entry): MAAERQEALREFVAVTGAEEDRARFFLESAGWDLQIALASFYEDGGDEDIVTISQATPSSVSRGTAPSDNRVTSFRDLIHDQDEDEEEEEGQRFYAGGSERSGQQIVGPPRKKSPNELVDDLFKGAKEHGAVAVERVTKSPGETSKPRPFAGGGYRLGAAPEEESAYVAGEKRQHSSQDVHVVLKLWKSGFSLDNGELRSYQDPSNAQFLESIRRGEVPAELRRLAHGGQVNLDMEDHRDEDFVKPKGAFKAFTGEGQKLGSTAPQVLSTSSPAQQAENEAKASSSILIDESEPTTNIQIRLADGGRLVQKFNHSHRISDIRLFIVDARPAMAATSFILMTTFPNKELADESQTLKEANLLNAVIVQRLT
substance,measurement,value
p47 (from UniProt Q9UNZ2),Kd,350 nM
